# Experimental data taken from US20240252670A1 (TSINGHUA UNIVERSITY, published 2024).
# Target: T1, PD-L1 on the surface of murine cells (MC38, B16, wild-type DC 2.4) (murine, UniProt Q9EP73 19-290)
# T1 construct: whole, on cells; also called PD-L1 antigen; Cd274 gene product
# Experiment: FACS on MC38 cells, FITC-labeled goat anti-human secondary antibody
# Source text: A. The histograms of different colors represent, from top to bottom, the fluorescence signals measured for the negative control (NC) group, the secondary antibody group, the anti-PD-L1 antibody group, the anti-PD-L1 THIOMAB group, and the ADC HE-S2 group, respectively. B. Mean fluorescence intensity (MFI) measured after treatment with different antibody-based drugs on MC38. NC group: the negative control only added with the isotype antibody, with no secondary antibody added for staining; secondary antibody group: the control group added with the isotype antibody and stained with fluorescent secondary antibody. Student's t test was used to compare significant differences between the groups, and p<0.0001 is represented by ****.
# With PD-L1 positive MC38 as a platform, the inventors verified whether ADC HE-S2 and the gene-modified anti-PD-L1 THIOMAB retained the original antibody-antigen binding capacity by using a fluorescence activated cell sorting (FACS) technique. In the experiment, ADC HE-S2, anti-PD-L1 antibody (i.e., avelumab as described in Example 2) and anti-PD-L1 THIOMAB (i.e., mutant antibody prepared in Example 2) serving as primary antibodies were incubated with MC38 cells, such that the antibodies could be sufficiently contacted and bind to PD-L1 on the cell surfaces. After washing with PBS, the cells were treated with an FITC-labeled goat anti-human secondary antibody, and incubated in the dark for 30 min to allow the secondary antibody to bind fully to the primary antibodies. Simultaneously, two groups of negative controls were set, wherein one group was marked as a negative control (NC), only isotype control IgG was added to treat the cells, no staining was carried out, and the fluorescent background of the cells was represented; the other group was marked as a secondary antibody, and after addition of isotype control IgG, the secondary antibody was stained with FITC-labeled secondary antibody along with other experimental groups to characterize false positive fluorescence signals generated by non-specific binding of secondary antibodies to the cells. The stained MC38 cells were analyzed on a BD FACSAria™ III flow cytometer, and the strength of FITC fluorescence signals on MC38 cells treated with different antibody-based drugs was detected and compared, so as to characterize the affinity of ADC, THIOMAB and antibodies to PD-L1.
# T1 sequence (Q9EP73 19-290): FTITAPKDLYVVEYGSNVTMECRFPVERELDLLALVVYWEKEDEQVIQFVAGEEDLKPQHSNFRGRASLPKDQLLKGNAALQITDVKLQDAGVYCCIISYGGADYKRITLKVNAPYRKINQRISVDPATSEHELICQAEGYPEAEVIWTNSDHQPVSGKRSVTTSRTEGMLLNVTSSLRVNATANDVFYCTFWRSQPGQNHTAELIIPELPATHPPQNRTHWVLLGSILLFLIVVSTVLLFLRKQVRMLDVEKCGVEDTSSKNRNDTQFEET
Binder,MFI,shift rate of the FITC positive signal relative to the NC group
"anti-PD-L1 THIOMAB (avelumab with light chain V205C) (antibody, human IgG1, lambda, engineered cysteine (V205C; Cys 226 of SEQ ID NO: 9) generally capped with a free cysteine in the intact THIOMAB as expressed, also called αPD-L1 THIOMAB LC-V205C) heavy: not shown light: QSALTQPASVSGSPGQSITISCTGTSSDVGGYNYVSWYQQHPGKAPKLMIYDVSNRPSGVSNRFSGSKSGNTASLTISGLQAEDEADYYCSSYTSSSTRVFGTGTKVTVLGQPKANPTVTLFPPSSEELQANKATLVCLISDFYPGAVTVAWKADGSPVKAGVETTKPSKQSNNKYAASSYLSLTPEQWKSHRSYSCQVTHEGSTCEKTVAPTECS",449,36.6%
"anti-PD-L1 antibody avelumab (antibody, human IgG1, lambda, also called MSB0010718C; Bavencio) heavy: not shown light: QSALTQPASVSGSPGQSITISCTGTSSDVGGYNYVSWYQQHPGKAPKLMIYDVSNRPSGVSNRFSGSKSGNTASLTISGLQAEDEADYYCSSYTSSSTRVFGTGTKVTVLGQPKANPTVTLFPPSSEELQANKATLVCLISDFYPGAVTVAWKADGSPVKAGVETTKPSKQSNNKYAASSYLSLTPEQWKSHRSYSCQVTHEGSTVEKTVAPTECS",445,35.7%
